Source: PMC7889895, “Crystal structure of a photosynthetic LH1-RC in complex with its electron donor HiPIP” (Nature Communications, 2021)

Target: light-harvesting 1 - reaction center complex (LH1-RC) of Thermochromatium tepidum (Thermochromatium tepidum, UniProt D2Z0P5 23-404; D2Z0P3 1-281; A8ASG6 1-325; D2Z0P9 1-259; D2Z0P2 1-61; D2Z0P1 …)
Assay: crystal structure; co-crystal by micro-batch under oil; HiPIP:LH1-RC mixed 15:1, LH1-RC 0.0694 mM; 30 mM sodium succinate pH 5, 20 mM CaCl2, 3.4% OPC, 30% PEG 1500; 20 °C; 2.9 Å
Conditions: both partners purified

B1: high-potential iron-sulfur protein (HiPIP) of Thermochromatium tepidum (natural protein, UniProt P80176 1-83, looked up)
chain: AAPANAVTADDPTAIALKYNQDATKSERVAAARPGLPPEEQHCANCQFMQANVGEGDWKGCQLFPGKLINVNGWCASWTLKAG
notes: High-potential iron-sulfur protein (HiPIP), Thermochromatium tepidum strain MC, native protein with its 4Fe-4S cluster, purified in the reduced state; Carries a 4Fe-4S cluster; also called Tch. tepidum HiPIP; source: purified from Tch. tepidum strain MC (soluble fraction of sonicated cells, DEAE column)
stoichiometry N: 1 HiPIP per LH1-RC
